Measurements taken from US20230295298A1 (PRECISION BIOLOGICS, published 2023).

What was measured:
[1] = molecular target: T1, human recombinant A33 antigen (human, UniProt Q99795 22-235); experiment: rH-GPA33 binding ELISA
T1 construct: also called rH-GPA33; rHGPA33
T1 sequence: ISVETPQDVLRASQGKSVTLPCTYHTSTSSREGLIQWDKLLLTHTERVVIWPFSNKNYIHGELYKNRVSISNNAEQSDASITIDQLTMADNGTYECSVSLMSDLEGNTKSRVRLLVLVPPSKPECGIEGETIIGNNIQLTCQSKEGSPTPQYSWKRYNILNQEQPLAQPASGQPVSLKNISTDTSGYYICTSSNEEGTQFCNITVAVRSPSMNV

[2] = molecular target: T2, human A33 antigen, full length, on cells (human, UniProt Q99795 22-319); experiment: flow cytometry, LS-174T cells
T2 construct: CHO cells transfected with full length A33 cDNA (A33-CHO), or endogenous antigen of LS174T (colon) and AsPC-1 (pancreatic) tumour cells; The cell line is named under assay; also called A33-CHO; A33 antigen on LS174T cells
T2 sequence: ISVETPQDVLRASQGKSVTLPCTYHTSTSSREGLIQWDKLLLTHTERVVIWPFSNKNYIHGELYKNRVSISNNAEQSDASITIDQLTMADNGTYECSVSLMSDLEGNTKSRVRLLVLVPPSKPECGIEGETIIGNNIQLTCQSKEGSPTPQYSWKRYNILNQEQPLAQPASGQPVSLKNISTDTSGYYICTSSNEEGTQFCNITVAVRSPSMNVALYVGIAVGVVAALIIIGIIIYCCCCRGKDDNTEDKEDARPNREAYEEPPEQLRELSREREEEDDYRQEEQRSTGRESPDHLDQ

[3] = molecular target: T2, human A33 antigen, full length, on cells; experiment: flow cytometry on LS174T cells, 0.37ug/mL
Description: (§1) Human IgG ELISA, rH-GPA33 Binding ELISA, cell Flow Cytometry (LS174T or AsPAC1), IHC staining (LS174T FFPE, tumor FFPE and Frozen tumor sections) and Coomassie blue staining of SDS-PAGE gel were used for the screening. Antibody in the culture supernatant was purified by Protein A/G purification in the column and dissolved in PBS buffer after three times dialysis. Aliquots of the antibodies were kept at -20° C. for storage.
(§2) Each combination was produced by transient transfection by using Expi293 Expression System Kit (Gibco, cat# A14635). […] Methods of Human IgG ELISA, rH-GPA33 Binding ELISA, LS174T cell Flow Cytometry, IHC staining on LS174T FFPE sections and Coomassie blue staining of SDS-PAGE gel were used for the initial screening.

[4] = molecular target: T2, human A33 antigen, full length, on cells; experiment: IHC on LS174T FFPE sections, 20ug/mL, first result
[5] = molecular target: T2, human A33 antigen, full length, on cells; experiment: flow cytometry, AsPC-1 cells (first AsPC-1 column)
[6] = molecular target: T2, human A33 antigen, full length, on cells; experiment: IHC on LS174T FFPE sections, 20ug/mL, repeat result
[7] = molecular target: T1, human recombinant A33 antigen; experiment: rH-GPA33 binding ELISA, 2ug/mL of 31.1, supernatant
Description: as §1, §2

[8] = molecular target: T2, human A33 antigen, full length, on cells; experiment: flow cytometry, AsPC-1 cells (second AsPC-1 column)
[9] = molecular target: T2, human A33 antigen, full length, on cells; experiment: IHC on LS174T FFPE sections, 20ug/mL
Description: as §1, §2

[10] = molecular target: T2, human A33 antigen, full length, on cells; experiment: flow cytometry, AsPC-1 cells, 2.3 ng/ml, experiment 1
[11] = molecular target: T2, human A33 antigen, full length, on cells; experiment: flow cytometry, AsPC-1 cells, 2.3 ng/ml, experiment 2
[12] = molecular target: T2, human A33 antigen, full length, on cells; experiment: flow cytometry, AsPC-1 cells, 6.9 ng/ml, experiment 1
[13] = molecular target: T2, human A33 antigen, full length, on cells; experiment: flow cytometry, AsPC-1 cells, 6.9 ng/ml, experiment 2
[14] = molecular target: T1, human recombinant A33 antigen; experiment: rH-GPA33 binding ELISA, first round supernatant
[15] = molecular target: T2, human A33 antigen, full length, on cells; experiment: flow cytometry, AsPC-1 cells, 20.6 ng/ml, experiment 1
[16] = molecular target: T2, human A33 antigen, full length, on cells; experiment: flow cytometry, AsPC-1 cells, 20.6 ng/ml, experiment 2
[17] = molecular target: T2, human A33 antigen, full length, on cells; experiment: flow cytometry, AsPC-1 cells, 5000 ng/ml, experiment 1
[18] = molecular target: T2, human A33 antigen, full length, on cells; experiment: flow cytometry, AsPC-1 cells, 5000 ng/ml, experiment 2
[19] = molecular target: T2, human A33 antigen, full length, on cells; experiment: flow cytometry, AsPC-1 cells, 61.7 ng/ml, experiment 1
[20] = molecular target: T2, human A33 antigen, full length, on cells; experiment: flow cytometry, AsPC-1 cells, 61.7 ng/ml, experiment 2
[21] = molecular target: T2, human A33 antigen, full length, on cells; experiment: flow cytometry, AsPC-1 cells, 185.2 ng/ml, experiment 1
[22] = molecular target: T2, human A33 antigen, full length, on cells; experiment: flow cytometry, AsPC-1 cells, 185.2 ng/ml, experiment 2
[23] = molecular target: T2, human A33 antigen, full length, on cells; experiment: flow cytometry, AsPC-1 cells, 555.6 ng/ml, experiment 1
[24] = molecular target: T2, human A33 antigen, full length, on cells; experiment: flow cytometry, AsPC-1 cells, 555.6 ng/ml, experiment 2
[25] = molecular target: T2, human A33 antigen, full length, on cells; experiment: flow cytometry, AsPC-1 cells, 1666.7 ng/ml, experiment 1
[26] = molecular target: T2, human A33 antigen, full length, on cells; experiment: flow cytometry, AsPC-1 cells, 1666.7 ng/ml, experiment 2
[27] = molecular target: T2, human A33 antigen, full length, on cells; experiment: flow cytometry, AsPC-1 cells, 0 ng/ml (background, no antibody), experiment 1
[28] = molecular target: T2, human A33 antigen, full length, on cells; experiment: flow cytometry, AsPC-1 cells, 0 ng/ml (background, no antibody), experiment 2

B1: humanized 31.1 antibody #5 (abb31.1-HC + cdr31.1-LC) (antibody, human IgG1, kappa, V domains shown)
VH: QIQLVQSGAEVKKPGASVKVSCKASGYTFTNYGMNWVRQAPGKGLEWMGWINTYTGEPTYAQKFQGRVTFTLDTSISTAYMELSRLRSDDTAVYFCARAYYGKYFDYWGQGTTVTVSS
VL: SIVMTQSPSSLSASVGDRVTITCKASQSVSNDVAWYQQKPGQSPKLLIYYASNRYTGVPDRFSGSGYGTDFTLTISSLQPEDFAVYFCQQDYSSPLTFGAGTKLEIKR
notes: Full heavy and light chains; supernatant in the first screen, Protein A/G purified in the second round; also called Sample ID 5; abb-HC + cdr-LC
Question: With B1 as the binder, how does the EC50 [1] read?
Answer: Its EC50 is 0.396 µg/mL.

Question: And the EC50 [2]?
Answer: Its EC50 is 0.0625 µg/mL.

Question: What about the MFI [3] of the same binder?
Answer: The MFI was 804 MFI.

Question: What about the “H-Score of IHC” value [4] of the same binder?
Answer: Its value is 240 H-Score.

Question: And the EC50 [5]?
Answer: Its EC50 is 0.235 µg/mL.

Question: And the “H-Score of IHC” value [6]?
Answer: The value was 100 H-Score.

Question: What about the “OD Value of rH-GPA33 Binding ELISA” value [7] of the same binder?
Answer: The value was 0.85 OD.

Question: And the EC50 [8]?
Answer: The EC50 was 0.122 µg/mL.

B2: humanized 31.1 antibody #6 (abb31.1-HC + abb31.1-LC) (antibody, human IgG1, kappa, V domains shown)
VH: QIQLVQSGAEVKKPGASVKVSCKASGYTFTNYGMNWVRQAPGKGLEWMGWINTYTGEPTYAQKFQGRVTFTLDTSISTAYMELSRLRSDDTAVYFCARAYYGKYFDYWGQGTTVTVSS
VL: SIQMTQSPSSLSASVGDRVTITCRASQSVSNDVAWYQQKPGQSPKLLIYYASNRYSGVPDRFSGSGYGTDFTLTISSLQPEDFAVYFCQQDYSSPLTFGAGTKLEIKR
notes: Full heavy and light chains; supernatant in the first screen, Protein A/G purified in the second round; also called Sample ID 6; abb-HC + abb-LC
Question: What does the source list for B2?
Answer: EC50 [1]: 1.23 µg/mL; EC50 [2]: 0.0809 µg/mL; MFI [3]: 628 MFI; H-Score of IHC [4]: 230 H-Score; EC50 [5]: 0.276 µg/mL; H-Score of IHC [6]: 240 H-Score; OD Value of rH-GPA33 Binding ELISA [7]: 0.74 OD; EC50 [8]: 0.152 µg/mL

B3: humanized 31.1 antibody #11 (sdr31.1-HC + sdr31.1-LC) (antibody, human IgG1, kappa, V domains shown)
VH: QIQLVQSGAEVKKPGASVKVSCKASGYTFTNYGMNWVRQAPGKGLEWMGWINPYTGEPTYAQKFQGRVTFTLDTSISTAYMELSRLRSDDTAVYFCARAYYGKYFDYWGQGTTVTVSS
VL: SIQMTQSPSSLSASVGDRVTITCRASQSISNDLAWYQQKPGQSPKLLIYYASNRYTGVPDRFSGSGYGTDFTLTISSLQPEDFAVYFCQQDYSSPLTFGAGTKLEIKR
notes: Full heavy and light chains; supernatant in the first screen, Protein A/G purified in the third round; used as negative control; also called Sample ID 11; sdr-HC + sdr-LC
Question: What does the source list for B3?
Answer: H-Score of IHC [9]: 160 H-Score; MFI [3]: 5.6 MFI; MFI [10]: 3.4 MFI; MFI [11]: 3.5 MFI; MFI [12]: 3.6 MFI; MFI [13]: 3.6 MFI; binding result [14]: no binding; MFI [15]: 4 MFI; MFI [16]: 4 MFI; MFI [17]: 117 MFI; MFI [18]: 117 MFI; MFI [19]: 5.9 MFI; MFI [20]: 5.3 MFI; MFI [21]: 8.2 MFI; MFI [22]: 8.2 MFI; MFI [23]: 16.2 MFI; MFI [24]: 16.6 MFI; MFI [25]: 38.9 MFI; MFI [26]: 39 MFI; OD Value of rH-GPA33 Binding ELISA [7]: 0.06 OD; MFI [27]: 3.6 MFI; MFI [28]: 3.6 MFI
